The target of the assay is T1, EV71-VP1-His (enterovirus 71 (EV71), UniProt Q66478 566-862, RED-tris-NTA dye on the His tag (in the MST only)).
T1 chain: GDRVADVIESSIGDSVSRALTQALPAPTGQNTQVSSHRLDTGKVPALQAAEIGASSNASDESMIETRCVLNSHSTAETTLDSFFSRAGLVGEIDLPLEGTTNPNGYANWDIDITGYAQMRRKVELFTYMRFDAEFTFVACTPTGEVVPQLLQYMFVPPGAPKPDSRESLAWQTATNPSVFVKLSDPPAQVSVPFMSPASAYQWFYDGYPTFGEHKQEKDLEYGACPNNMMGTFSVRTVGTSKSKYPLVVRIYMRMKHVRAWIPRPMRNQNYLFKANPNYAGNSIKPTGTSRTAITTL
The assay can be described thus: MST.

Experimental findings from paper PMC11998487 (2025) are described below.

A word on the Kd: it is the concentration at which binding is half-saturated.

B1: ZYG11B 1–58-GST (domain or fragment)
chain: MPEDQAGAAMEEASPYSLLDICLNFLTTHLEKFCSARQDGTLCLQEPGVFPQEVADRL
B1 gave a Kd of 5.55 µM.
